Results reported in patent publication US7595158B2, “Bcl2L12 polypeptide activators and inhibitors” (Dana-Farber Cancer Institute, Inc., priority 2003, dated 2009).

T1: caspase-9 (Homo sapiens, UniProt P55211)
T1 construct: endogenous in cells; host or cells: 293T
T1 sequence (P55211 1-416): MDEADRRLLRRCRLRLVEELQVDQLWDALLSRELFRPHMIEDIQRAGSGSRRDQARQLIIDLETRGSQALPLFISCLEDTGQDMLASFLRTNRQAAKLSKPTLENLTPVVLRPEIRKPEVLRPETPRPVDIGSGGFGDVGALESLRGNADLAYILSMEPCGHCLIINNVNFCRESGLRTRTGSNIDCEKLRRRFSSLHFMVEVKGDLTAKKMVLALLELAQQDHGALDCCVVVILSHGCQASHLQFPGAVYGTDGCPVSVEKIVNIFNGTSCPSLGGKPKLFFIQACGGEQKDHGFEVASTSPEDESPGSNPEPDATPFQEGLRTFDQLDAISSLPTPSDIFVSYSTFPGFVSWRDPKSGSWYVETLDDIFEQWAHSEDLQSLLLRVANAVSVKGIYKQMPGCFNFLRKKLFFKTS

B1: Bcl2L12-V5-ΔBH2: V5 tagged mutant lacking amino acid residues 311-334 (BH2 domain) of human Bcl2L12; sequence 1-310 (protein)
chain: MGRPAGLFPPLCPFLGFRPEACWERHMQIERAPSVPPFLRWAGYRPGPVRRRGKVELIKFVRVQWRRPQVEWRRRRWGPGPGASMAGSEELGLREDTLRVLAAFLRRGEAAGSPVPTPPRSPAQEEPTDFLSRLRRCLPCSLGRGAAPSESPRPCSLPIRPCYGLEPGPATPDFYALVAQRLEQLVQEQLKSPPSPELQGPPSTEKEAILRRLVALLEEEAEVINQKLASDPALRSKLVRLSSDSFARLVELFCSRDDSSRPSRACPGPPPPSPEPLARLALAMELSRRVAGLGGTLAGLSVEHVHSFTP
modifications: left off: small tags and cut ends
B2: Bcl2L12-V5: Bcl2L12 polypeptide having the V5 epitope tag, ectopically expressed from pBabe-Bcl2L12-V5 vector; human amino acid sequence 1-334 (protein)
chain: MGRPAGLFPPLCPFLGFRPEACWERHMQIERAPSVPPFLRWAGYRPGPVRRRGKVELIKFVRVQWRRPQVEWRRRRWGPGPGASMAGSEELGLREDTLRVLAAFLRRGEAAGSPVPTPPRSPAQEEPTDFLSRLRRCLPCSLGRGAAPSESPRPCSLPIRPCYGLEPGPATPDFYALVAQRLEQLVQEQLKSPPSPELQGPPSTEKEAILRRLVALLEEEAEVINQKLASDPALRSKLVRLSSDSFARLVELFCSRDDSSRPSRACPGPPPPSPEPLARLALAMELSRRVAGLGGTLAGLSVEHVHSFTPWIQAHGGWEGILAVSPVDLNLPLD
modifications: left off: small tags and cut ends

Experiments:
caspase-9 = biological target: T1, caspase-9; assay: Caspase-9 in vitro cleavage and LEHDase activity assay with 293T cells; type: cell-based; conditions: for caspase-9 activity: V5 tagged constructs, vector only about 420 RFUs
Text: To determine if Bcl2L12 polypeptides could-regulate-the activity of caspase-9, a cell-free system was used in which exogenously added dATP and cytochrome c induced the activation of [^35S] labeled in vitro translated caspase-9. […] To confirm the inhibitory effect of Bcl2L12 polypeptides on caspase-9 maturation, 293T cells ectopically expressing Bcl2L12-V5 polypeptides where either subjected to an in vitro cleavage assay or to an activity assay using the caspase-9 specific fluorogenic peptide LEHD.
In addition, vectors encoding V5 tagged wild-type human Bcl2L12 polypeptide (WT; human amino acid sequence 1-334) and three V5 tagged truncation mutants of human Bcl2L12 (Bcl2L12-ΔBH2 polypeptide, human amino acid sequence 1-310; Bcl2L12-ΔBH2ΔP-r polypeptide, human amino acid sequence 1-267; and Bcl2L12-ΔBH2ΔP-rΔIHD polypeptide, human amino acid sequence 1-167) were made (FIG. 4A). These vectors expressed the appropriately sized polypeptides when translated in vitro or when expressed in 293T cells.

[1] = system: Ink4a/Arf deficient astrocytes; assay: DNA fragmentation (sub-G1, FACS) in Ink4a/Arf deficient astrocytes after apoptotic stimuli; type: cell-based, mouse; conditions: for DNA fragmentation: 500 nM STS, pBabe about 22 percent
Description: After STS treatment, the cells were analyzed for apoptosis by assessing annexin V binding and DNA fragmentation using a FACS based analysis.
In a separate experiment, Ink4a/Arf deficient astrocytes ectopically expressing Bcl2L12-V5 polypeptide or containing an empty vector as control were treated with 0, 50, 100, or 1000 nM of STS. After a 24 hour-incubation, DNA fragmentation was measured using FACS-based quantification of sub-G1 DNA content.
In another experiment, Ink4a/Arf deficient astrocytes ectopically expressing Bcl2L12-V5 polypeptide or containing an empty vector as control were treated with 0, 2, 4, 8, 16, or 32 μM camptothecin (CPT) for 20 hours. After the 20 hour incubation, DNA fragmentation was determined by FACS-based quantification of sub-G1 peaks. Expression of the Bcl2L12 polypeptide conferred resistance to CPT-stimulated apoptosis.
Ink4a/Arf deficient astrocytes ectopically expressing Bcl2L12-V5 polypeptide or containing an empty vector as control were treated with TNFα in the presence of 1 μg/mL cycloheximide for 24 hours. After the 24 hour incubation, DNA fragmentation was measured using FACS-based quantification of sub-G1 DNA content.
Ink4a/Arf deficient astrocytes ectopically expressing Bcl2L12-V5 polypeptide or containing an empty vector as control were treated with 0, 10, 50, and 100 Gray (Gy) of γ radiation. After 24 hours, DNA fragmentation was measured. Ectopic expression of a Bcl2L12 polypeptide protects INK4a/Arf deficient astrocytes from γ-irradiation-induced apoptosis (FIG. 5C).

Molecule	caspase-9 activity (caspase-9)	DNA fragmentation [1]	LEHDase activity (caspase-9; 293T cells, control vector about 800 RFUs)	processing of caspase-9 into p37 and p35 (caspase-9; in vitro cleavage assay, 293T cells, vs vector only)	resistance to anti-Fas, TRAIL, etoposide, and carboplatin mediated apoptosis [1]	protection from γ-irradiation-induced apoptosis (DNA fragmentation) ([1]; 10, 50, 100 Gy, 24 hours)	protection from STS-induced apoptosis (DNA fragmentation) ([1]; 50, 100, or 1000 nM STS, 24 hours)	protection from TNFα-mediated apoptosis (DNA fragmentation) ([1]; TNFα with 1 μg/mL cycloheximide, 24 hours)	maximum percent DNA fragmentation ([1]; camptothecin up to 32 μM, 20 hours, pBabe greater than 60 percent) [%]
B1	about 160 RFUs	about 7%	–	–	–	–	–	–	–
B2	about 145 RFUs	about 2%	about 260 RFUs	reduced processing of caspase-9	complete resistance	protects	protected astrocytes from STS-induced apoptosis	significant protection	35 to 45
